In article PMC6274722:
deuterohemin = iron-porphyrin joined to the peptide N-terminus

Target: amyloid β 1-42 peptide (Aβ1-42) (UniProt P05067)

deuterohemin-AHTVEK-NH2 (also: His2 imidazole is the fifth ligand of the deuterohemin iron) [Deuterohemin-AlaHisThrValGluLys (DhHP-6)]
particle size (DLS, five days) and morphology (TEM, three days) of Aβ1-42 incubated with DhHP-6 at 10 μM:10 μM, 37 °C: 396 nm
